Test results reported in US20240285573A1, “PHARMACEUTICAL COMPOSITION FOR PREVENTING OR TREATING DIABETIC EYE DISEASE COMPRISING SGLT-2 INHIBITOR” (priority 2021, published 2024).

Test system: diabetic retinopathy animal model
Assay: Retinal fluorescein intensity (fundus imaging) in streptozotocin-induced diabetic retinopathy animal model
Assay type: in vivo, Brown Norway rats (BN/SsN Slc)
Conditions: relative to normal control G1 = 100%, STZ-induced rats, right eye, intravitreal, non-vascular regions of retina
Description: Brown Norway rats (BN/SsN Slc) were used. […] Streptozotocin (STZ) was administered to animals determined to be healthy during the acclimation period, and blood sugar levels were measured on day 7 of administration. […] Streptozotocin was intravenously administered once at a dose of 60 mg/kg on the day of induction. G1 is a normal control in which diabetic retinopathy was not induced, G2 is a control in which diabetic retinopathy was induced and to which the vehicle of Comparative Example 1 was administered, and G3 and G4 are groups to which ranibizumab of Comparative Example 2 was administered as a positive control material, and G5 to G9 are groups to which the SGLT-2 inhibitors according to Examples 1 to 5 were administered, respectively. For intravitreal injection, animals were anesthetized, and a syringe with a 31-gauge needle was used to perform intravitreal injections into the right eye of the respective animals. The test material was administered as a single dose on the day of administration. The injection volume was either 1 μL/eye or 5 μL/eye. […] Retinal examination and efficacy were assessed using retinal fluorescent fundus photographs. […] The relative levels (%) of the measured values for each individual were analyzed, with the average value of the normal control group (G1) as the reference (100%), and comparisons were made between the groups. […]

B1: Ranibizumab (antibody, chains of the INN, looked up, V domains shown)
VH: EVQLVESGGGLVQPGGSLRLSCAASGYDFTHYGMNWVRQAPGKGLEWVGWINTYTGEPTYAADFKRRFTFSLDTSKSTAYLQMNSLRAEDTAVYYCAKYPYYYGTSHWYFDVWGQGTLVTVSS
VL: DIQLTQSPSSLSASVGDRVTITCSASQDISNYLNWYQQKPGKAPKVLIYFTSSLHSGVPSRFSGSGSGTDFTLTISSLQPEDFATYYCQQYSTVPWTFGQGTKVEIK
notes: LUCENTIS® purchased and administered as a positive control; anti-VEGF monoclonal antibody therapy
- Fluorescence intensity on 21st day (10 μg/eye, 1 μL/eye, once (G4)): 128.359%
- Fluorescence intensity on 21st day (50 μg/eye, 5 μL/eye, once (G3)): 125.586 ± 14.799 %
